Laboratory results taken from patent US20240309060A1, “POLYPEPTIDE BAX/NPM INHIBITORS” (TRUSTEES OF BOSTON UNIVERSITY, priority 2023, published 2024).
Square brackets hold non-standard residues; d marks the D form. βAla = NCCC(=O)O

Key:
[1] = molecular target: human nucleophosmin 1 (NPM1) (human), P06748; assay: SPR on human NPM1, mean of at least three peptide concentrations below saturation
[2] = molecular target: human nucleophosmin 1 (NPM1) (human), P06748; assay: SPR on human NPM1, KD calculated as koff/kon

Sequence of human nucleophosmin 1 (NPM1) (human), P06748 (P06748 whole entry): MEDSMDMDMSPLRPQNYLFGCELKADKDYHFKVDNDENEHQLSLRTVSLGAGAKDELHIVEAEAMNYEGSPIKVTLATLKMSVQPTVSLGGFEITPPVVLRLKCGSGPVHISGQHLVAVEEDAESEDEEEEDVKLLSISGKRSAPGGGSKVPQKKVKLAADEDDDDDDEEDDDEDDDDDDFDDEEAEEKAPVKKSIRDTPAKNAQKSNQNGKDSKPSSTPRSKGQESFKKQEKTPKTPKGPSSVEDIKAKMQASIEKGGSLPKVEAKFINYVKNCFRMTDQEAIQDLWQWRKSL

Row | koff [1] | kon [1] | Kd [2] | Binder
1 | 0.0616 s⁻¹ | 73200 M⁻¹ s⁻¹ | 842 nM | Ac-KKRRRKKRRRKKRRRK[βAla]TVTIFVAGVLTASLTIWKKMG-OH (SMILES CC[C@H](C)[C@H](NC(=O)[C@@H](NC(=O)[C@H](CC(C)C)NC(=O)[C@H](CO)NC(=O)[C@H](C)NC(=O)[C@@H](NC(=O)[C@H](CC(C)C)NC(=O)[C@@H](NC(=O)CNC(=O)[C@H](C)NC(=O)[C@@H](NC(=O)[C@H](Cc1ccccc1)NC(=O)[C@@H](NC(=O)[C@@H](NC(=O)[C@@H](NC(=O)[C@@H](NC(=O)CCNC(=O)[C@H](CCCCN)NC(=O)[C@H](CCCNC(=N)N)NC(=O)[C@H](CCCNC(=N)N)NC(=O)[C@H](CCCNC(=N)N)NC(=O)[C@H](CCCCN)NC(=O)[C@H](CCCCN)NC(=O)[C@H](CCCNC(=N)N)NC(=O)[C@H](CCCNC(=N)N)NC(=O)[C@H](CCCNC(=N)N)NC(=O)[C@H](CCCCN)NC(=O)[C@H](CCCCN)NC(=O)[C@H](CCCNC(=N)N)NC(=O)[C@H](CCCNC(=N)N)NC(=O)[C@H](CCCNC(=N)N)NC(=O)[C@H](CCCCN)NC(=O)[C@H](CCCCN)NC(C)=O)[C@@H](C)O)C(C)C)[C@@H](C)O)[C@@H](C)CC)C(C)C)C(C)C)[C@@H](C)O)[C@@H](C)O)C(=O)N[C@@H](Cc1c[nH]c2ccccc12)C(=O)N[C@@H](CCCCN)C(=O)N[C@@H](CCCCN)C(=O)N[C@@H](CCSC)C(=O)NCC(=O)O) [NPMB1-I-010]
2 | 0.0299 s⁻¹ | 88500 M⁻¹ s⁻¹ | 337 nM | Ac-RREEERREEERREEEK[βAla]TVTIFVAGVLTASLTIWKKMG-OH (SMILES CC[C@H](C)[C@H](NC(=O)[C@@H](NC(=O)[C@H](CC(C)C)NC(=O)[C@H](CO)NC(=O)[C@H](C)NC(=O)[C@@H](NC(=O)[C@H](CC(C)C)NC(=O)[C@@H](NC(=O)CNC(=O)[C@H](C)NC(=O)[C@@H](NC(=O)[C@H](Cc1ccccc1)NC(=O)[C@@H](NC(=O)[C@@H](NC(=O)[C@@H](NC(=O)[C@@H](NC(=O)CCNC(=O)[C@H](CCCCN)NC(=O)[C@H](CCC(=O)O)NC(=O)[C@H](CCC(=O)O)NC(=O)[C@H](CCC(=O)O)NC(=O)[C@H](CCCNC(=N)N)NC(=O)[C@H](CCCNC(=N)N)NC(=O)[C@H](CCC(=O)O)NC(=O)[C@H](CCC(=O)O)NC(=O)[C@H](CCC(=O)O)NC(=O)[C@H](CCCNC(=N)N)NC(=O)[C@H](CCCNC(=N)N)NC(=O)[C@H](CCC(=O)O)NC(=O)[C@H](CCC(=O)O)NC(=O)[C@H](CCC(=O)O)NC(=O)[C@H](CCCNC(=N)N)NC(=O)[C@H](CCCNC(=N)N)NC(C)=O)[C@@H](C)O)C(C)C)[C@@H](C)O)[C@@H](C)CC)C(C)C)C(C)C)[C@@H](C)O)[C@@H](C)O)C(=O)N[C@@H](Cc1c[nH]c2ccccc12)C(=O)N[C@@H](CCCCN)C(=O)N[C@@H](CCCCN)C(=O)N[C@@H](CCSC)C(=O)NCC(=O)O) [NPMB1-I-011]
